The target in assay [1] is human factor B (human) (UniProt P00751). In words: cell-based or functional assay.
The target in assay [2] is Ba protein (Ba fragment of factor B) (human) (UniProt P00751). In words: ELISA; antibody titrated on Ba-coated wells. For orientation: An ELISA detects its analyte on a solid surface through an enzyme-linked reagent.
Assay [3] deals with human factor B (human) (UniProt P00751). In words: competition ELISA; Anti-Ba varied, factor B binding to C3b-coated plates.
For assay [4] the target is unchanged. In words: competition ELISA; Anti-Ba varied, factor B binding to properdin-bound C3b on plates.
Assay [5] shares this target. The assay can be described thus: competition ELISA; Anti-Ba varied, factor B binding to C3b or properdin-bound C3b; range told for both formats.

The text below walks through data of patent publication US20100015139A1.

Chain of human factor B (human) (P00751 other isoform, or with tags, fused parts or gaps limits assumed): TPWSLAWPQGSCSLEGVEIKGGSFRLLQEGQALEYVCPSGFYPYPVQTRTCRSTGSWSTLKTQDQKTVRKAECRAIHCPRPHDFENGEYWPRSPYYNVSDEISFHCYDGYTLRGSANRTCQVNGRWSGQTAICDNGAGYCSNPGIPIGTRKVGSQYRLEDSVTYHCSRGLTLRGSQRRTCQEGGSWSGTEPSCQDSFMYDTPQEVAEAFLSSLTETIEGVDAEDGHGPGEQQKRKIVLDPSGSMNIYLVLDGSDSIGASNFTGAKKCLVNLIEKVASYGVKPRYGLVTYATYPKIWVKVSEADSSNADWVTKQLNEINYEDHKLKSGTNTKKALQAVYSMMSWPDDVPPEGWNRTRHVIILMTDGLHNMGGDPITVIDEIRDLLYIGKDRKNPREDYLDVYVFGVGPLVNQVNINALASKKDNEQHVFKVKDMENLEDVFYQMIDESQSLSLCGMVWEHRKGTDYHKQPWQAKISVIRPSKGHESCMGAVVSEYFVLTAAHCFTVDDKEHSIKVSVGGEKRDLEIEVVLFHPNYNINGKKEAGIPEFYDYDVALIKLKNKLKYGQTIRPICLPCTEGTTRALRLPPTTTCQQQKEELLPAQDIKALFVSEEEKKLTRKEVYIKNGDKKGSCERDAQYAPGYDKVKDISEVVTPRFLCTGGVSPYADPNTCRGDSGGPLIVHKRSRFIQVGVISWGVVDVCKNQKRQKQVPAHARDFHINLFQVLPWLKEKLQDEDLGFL
Chain of Ba protein (Ba fragment of factor B) (human) (P00751 other isoform, or with tags, fused parts or gaps limits assumed): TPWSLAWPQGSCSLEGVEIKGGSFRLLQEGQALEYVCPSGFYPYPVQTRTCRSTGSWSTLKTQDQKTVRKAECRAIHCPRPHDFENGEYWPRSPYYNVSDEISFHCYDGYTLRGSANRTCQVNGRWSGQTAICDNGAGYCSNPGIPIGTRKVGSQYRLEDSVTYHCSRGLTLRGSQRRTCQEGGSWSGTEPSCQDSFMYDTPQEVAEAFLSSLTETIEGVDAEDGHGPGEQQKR

“anti-factor Ba monoclonal antibody (Quidel A225, murine)” showed an Inhibition of C5b-9 formation in normal human serum on LPS coated plates (AP dependent C3-convertase formation) in assay [1] of 527 nM. In assay [1], this substance registered an Inhibition of alternative pathway-dependent hemolysis of rabbit erythrocytes in 10% normal human serum of 125 µg/mL. In assay [2], this substance gave a Kd of 9.65 nM. Besides, the IC50 in assay [3] was 556 nM; in assay [4], 234 nM; in assay [5], 200 to 500 nM.

As usually defined, the Kd is a measure of binding affinity in units of concentration. A lower Kd goes with a tighter complex. As a reminder, the IC50 is the concentration needed to halve the response being measured. A low value points to inhibition by little substance.
